Assay: label from the status in PepcDB records

Sequence | protein production
MDIEVDIIEFKVPLENNKTIFIWDIQPTFTEAYIYESLWSVYSAFGDLYLLKVCPNATVAEPGFYALVKFYSSAQASKAQRATDKQCLFQSSPLKVRLSTKQNLSFYSSKPLCLSKCHNLANHYLGFGGWTTRIVTLKDLSNCVDAGCQEETGDQGVLLKYGCIMELSFPHHGMSCQGVGVAEEVLDSDQDPEEKLRKRGALMKRAKDKAMEVAFEKVLLLILGNGKVAIEIKIDPDEIVPEENSERVIKVNDISWTHIESADSNAEEDFLWDLTEDLPY | failed
MKQQLESFIETTKPSALVADMFFPWATESAEKLGVPRLVFHGTSFFSLCCSYNMRIHKPHKKVATSSTPFVIPGLPGDIVITEDQANVAKEETPMGKFMKEVRESETNSFGVLVNSFYELESAYADFYRSFVAKRAWHIGPLSLSNRELGEKARRGKKANIDEQECLKWLDSKTPGSVVYLSFGSGTNFTNDQLLEIAFGLEGSGQSFIWVVRKNENQGDNEEWLPEGFKERTTGKGLIIPGWAPQVLILDHKAIGGFVTHCGWNSAIEGIAAGLPMVTWPMGAEQFYNEKLLTKVLRIGVNVGATELVKKGKLISRAQVEKAVREVIGGEKAEERRLWAKKLGEMAKAAVEEGGSSYNDVNKFMEELNGRK | failed
PLNRLGHKIYQHSGKWLQETAAEKLNQRDQLINPGHAQVLILGMGRIGTGAYDELRARYGKISLGIEIREEAAQQHRSEGRNVISGDATDPDFWERILDTGHVKLVLLAMPHHQGNQTALEQLQRRNYKGQIAAIAEYPDQLEGLLESGVDAAFNIYSEAGSGFARHVCKQLEPQFTSIK | not failed
MKANNHFKDFAWKKCLLGASVVALLVGCSPHIIETNEVALKLNYHPASEKVQALDEKILLLRPAFQYSDNIAKEYENKFKNQTALKVEQILQNQGYKVISVDSSDKDDLSFSQKKEGYLAVAMNGEIVLRPDPKRTIQKKSEPGLLFSTGLDKMEGVLIPAGFVKVTILEPMSGESLDSFTMDLSELDIQEKFLKTTHSSHSGGLVSTMVKGTDNSNDAIKSALNKIFANIMQEIDKKLTQKNLESYQKDAKELKGKRNR | failed
MPQITIIVPVYNAERTLERCVRSIQAQTVVNWELLLIDDGSEDYSSKLCDEYAIQDSRIRVFHQVNGGASSARNVGLEYTKGEWVVFCDSDDWVDSNWLELFKNQIDNGTELIVQGFIPHGNLWQSRTGINFHGNVKTGILKLQEENILGFMCTKMYKREIIEQCGLRFDTELVLREDELFMLQYAEYISTIQCMEEGAYHYDMPDFSTKYGNIDLFNMFLKIYVVLKRIFSGEDNLLLQNYENDLTQSLFHSFVMRHDDRCKKLENYRKEVGKRVLGVKSLSQFSKYILAYVPSFQVAYLLLEAKAKIVKSMQLEHHHHHH | not failed
KVVKFSYMWTINNFSFCREEMGEVIKSSTFSSGANDKLKWCLRVNPKGLDEESKDYLSLYLLLVSCPKSEVRAKFKFSILNAKGEETKAMESQRAYRFVQGKDWGFKKFIRRDFLLDEANGLLPDDKLTLFCEVSVVQDSVNISGQ | not failed
MAYDGLFTKKMVESLQFLTTGRVHKINQPDNDTILMVVRQNRQNHQLLLSIHPNFSRLQLTTKKYDNPFNPPMFARVFRKHLEGGIIESIKQIGNDRRIEIDIKSKDEIGDTIYRTVILEIMGKHSNLILVDENRKIIEGFKHLTPNTNHYRTVMPGFNYEAPPTQHKINPYDITGAEVLKYIDFNAGNIAKQLLNQFEGFSPLITNEIVSRRQFMTSSTLPEAFDEVMAETKLPPTPIFHKNHETGKEDFYFIKLNQFNDDTVTYDSLNDLLDRFYDARGERERVKQRANDLVRFVQQQLHKYQNKLAKLIEEYEQSKNKDTEQLYGELITANIYRIKQGDKEVTALNYYTNEEVVIPLNPTKSPSANAQYYYKQYNRMKTRERELQHQIQLTKDNIDYFSTIEQQLHHISVHDIDEIRDELAEQGFMKQRKNQTKKKKAQ | not failed
MGYLIGGDIISSSPFTKIFYGSCRKIAVFIFSVLSLTIISGILMYFIEGETGGFTSPSLSIYWAIATLLTVGYGDVVLQTSVGRAMASFVSVLGLSIIVVPIFIVIAEIFGLLSRTFSW | failed
MGAAKNIWALANAEDAANDAEQIPYSSFVVDTSLPLPLMIPRIIELCKDLFKNWGELDDSLFSVERVSGGITNLLLKVSVKEDTNKEVSVTVRLYGPNTEYVINREREILAIKYLSAAGFGAKLLGGFGNGMVQSFINARTLEPSDMREPKIAAQIARELGKFHKVDIPGSKEPQLWVDILKFYEKASTLTFEEPDKQKLFETISFEELHKEIIELREFTGLLNAPVVFAHNDLLSGNFMLNDEEEKLYLIDFEYGSYNYRGFDIGNHFNEYAGYDCDYSLYPSKEEQYHFIKHYLQPDKPDEVSIAEVESVFVETDAYKLASHLYWAIWAIIQARMSPIEFEYLGYFFLRYNEYKKQKPLTFSLVTSHLSASL | failed

Reference: a protein production outcome set (Wang et al. 2014)
